{
  "source": "patent US10933132B2",
  "about": "“Combination of epigenetic factors and bispecific compounds targeting CD33 and CD3 in the treatment of myeloid leukemia” (AMGEN RESEARCH (MUNICH) GMBH, priority 2013, dated 2021)",
  "molecules": {"B1": {"name": "G-CSF: glycoprotein cytokine that stimulates the bone marrow to produce granulocytes and stem cells (Peprotech) (protein, UniProt P09919 31-207, looked up)", "Granulocyte …": "TPLGPASSLPQSFLLKCLEQVRKIQGDGAALQEKLVSECATYKLCHPEELVLLGHSLGIPWAPLSSCPSQALQLAGCLSQLHSGLFLYQGLLQALEGISPELGPTLDTLQLDVADFATTIWQQMEELGMAPALQPTQGAMPAFASAFQRRAGGVLVASHLQSFLEVSYRVLRHLAQP"}},
  "test_system": "KG1α AML cells",
  "assay": "G-CSF up-regulation of CD33 on AML cell lines, flow cytometry",
  "type": "cell-based",
  "conditions": "10 days; for CD33 MFI Ratio: KG1α, untreated 16.5",
  "procedure": "AML cell lines OCI-AML3 and KG1α were seeded in 24-well plates at 5×10^5 cells/ml on day 0. Cells were either left untreated (UT) or treated with 200 ng/ml (C1) or 2000 ng/ml (C2) G-CSF (Peprotech) for 10 days. G-CSF was freshly added to the cultures biweekly. On day 10, cells were harvested and analyzed for changes in CD33 surface expression by flow cytometry.",
  "data": [
    {"molecule": "B1", "values": [
      {"measurement": "upregulation of CD33 (in words)", "setting": "KG1α AML cells, 200 and 2000 ng/ml", "result": "low upregulation"},
      {"measurement": "CD33 MFI Ratio", "setting": "C1 = 200 ng/ml G-CSF", "result": 17.9},
      {"measurement": "CD33 MFI Ratio", "setting": "C2 = 2000 ng/ml G-CSF", "result": 19.2}
    ]}
  ]
}
